Test results as given in US6365373 (Genentech, dated 2002).

Assays:
[1] = target: T1, human trkC receptor immunoadhesin (trkC extracellular domain fused to immunoglobulin constant domains) (human, UniProt Q16288 32-429); experiment: competitive displacement of labeled NT-3 from human trkC immunoadhesin, 96-well plate
T1 construct: extracellular domain; not shown: immunoglobulin constant domains

[2] = target: T2, human trkA receptor immunoadhesin (trkA extracellular domain fused to immunoglobulin constant domains) (human, UniProt P04629 33-423); experiment: competitive displacement of labeled NGF from human trkA immunoadhesin, 96-well plate
T2 construct: extracellular domain; not shown: immunoglobulin constant domains
T2 sequence (P04629 33-423): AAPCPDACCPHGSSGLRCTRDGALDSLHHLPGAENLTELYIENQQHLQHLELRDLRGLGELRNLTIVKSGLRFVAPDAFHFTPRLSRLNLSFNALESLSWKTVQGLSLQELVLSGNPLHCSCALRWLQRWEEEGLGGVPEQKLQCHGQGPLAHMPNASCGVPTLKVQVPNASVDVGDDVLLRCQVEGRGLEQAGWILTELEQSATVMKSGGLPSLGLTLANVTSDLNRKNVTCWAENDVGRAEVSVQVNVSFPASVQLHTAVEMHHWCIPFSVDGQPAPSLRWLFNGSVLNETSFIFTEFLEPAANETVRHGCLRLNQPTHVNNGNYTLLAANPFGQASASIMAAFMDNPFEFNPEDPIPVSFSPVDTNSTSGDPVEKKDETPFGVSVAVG

B1: NGF127 (ligand)
chain: SSSHPIFHRGEFSVCDSESLWVTDKTTATDIKGKEVMVLGEVNINNSVFKQYFFETKCRDPNPVDSGCRGIDSKHWNSQCKTTQTFVKALTMDGKQAAWRFIRIDTACVCVLSRKAVRRA
[1]
  IC50mut/IC50NGF12: 2.2 ratio
  IC50mut/IC50NT-3: 33 ratio
[2]
  IC50mut/IC50NGF: 1 ratio

B2: NGF131 (ligand)
chain: SSSHPIFHRGEFSVCDSVSLWVTDKTTAIDIKGKEVMVLGEVNINNSVFKQYFFETKCRDPNPVDSGCRGIDSKHWNSYCTTTQTYVKALTMDGKQAAWRFIRIDTACVCVLSRKAVRRA
notes: also called NGF31
[1]
  IC50mut/IC50NGF12: 0.2 ratio
  IC50mut/IC50NT-3: 3.3 ratio
[2]
  IC50mut/IC50NGF: 1.1 ratio

B3: NGF130 (ligand)
chain: SSSHPIFHRGEFSVCDSVSLWVTDKTTATDIKGKEVMVLGEVNINNSVFKQYFFETKCRDPNPVDSGCRGIDSKHWNSYCTTTQTYVKALTMDGKQAAWRFIRIDTACVCVLSRKAVRRA
[1]
  IC50mut/IC50NGF12: 0.3 ratio
  IC50mut/IC50NT-3: 4.5 ratio
[2]
  IC50mut/IC50NGF: 1 ratio

B4: NGFR2 (ligand)
chain: SSSHPIFHRGEFSVCDSVSLWVTDKTTATDIKGKEVMVLGEVNINNSVFKQYFFETKCRDPNPVDSGCRGIDSKHWNSYCKTTQTFVKALTMDGKQAAWRFIRIDTACVCVLSRKAVRRA
[1]
  IC50mut/IC50NGF12: 0.7 ratio
  IC50mut/IC50NT-3: 10.5 ratio
[2]
  IC50mut/IC50NGF: 0.9 ratio

B5: NGFR3 (ligand)
chain: SSSHPIFHRGEFSVCDSESVWVTDKTTATDIKGKEVMVLGEVNINNSVFKQYFFETKCRDPNPVDSGCRGIDSKHWNSYCKTTQTFVKALTMDGKQAAWRFIRIDTACVCVLSRKAVRRA
[1]
  IC50mut/IC50NGF12: 2.5 ratio
  IC50mut/IC50NT-3: 37.2 ratio
[2]
  IC50mut/IC50NGF: 1.6 ratio

B6: NGF1234 (ligand)
chain: SSSHPIFHRGEFSVCDSESLWVTDKTTAIDIKGKEVMVLGEVNINNSVFKQYFFETKCRDPNPVDSGCRGIDSKHWNSQCKTTQTYVKALTMDGKQAAWRFIRIDTACVCVLSRKAVRRA
[1]
  IC50mut/IC50NGF12: 0.3 ratio
  IC50mut/IC50NT-3: 4.9 ratio
[2]
  IC50mut/IC50NGF: 1.3 ratio
